The values that follow come from patent publication US6710030B1, “Contortrostain (CN) and methods for its use in preventing metastasis and other conditions” (University of Southern California, priority 1993, dated 2004).

“Also recorded” adds a separate entry of the source. Where two headings read alike, the source gives them in different places.

The subject of series [1] is human platelet rich plasma. The experiment in a line: ADP-induced platelet aggregation in human platelet rich plasma. In kind it is cell-based. The method, then: (§1) Column fractions obtained during purification were assayed for activity using fresh human platelet rich plasma (PRP) prepared from blood obtained from human volunteers who had had no medication for at least two weeks. Blood (36 ml) was drawn into 4 ml of 0.1 M citrate and centrifuged at 150×g for 20 minutes. The supernatant, PRP, was removed and the remaining blood was centrifuged at 10,000 RPM to obtain platelet poor plasma (PPP). Platelet counts were adjusted to 250,000 platelets/μl using a Coulter counter. A Helena four channel aggregometer was used to monitor platelet aggregation. Inhibition of ADP-induced platelet aggregation was monitored at 37° C. by adding venom fractions one minute prior to the addition of ADP (10-20 μM final concentration). […] Rabbit and canine PRP was prepared by the same procedure and used in the studies described below.
(§2) CN inhibited ADP-induced platelet aggregation in human, canine, and rabbit PRPs (FIG. 6). Empty circles represent human platelet rich plasma, solid circles represent canine PRP, and empty triangles represent rabbit PRP. Varying concentration of CN were preincubated for one minute with PRP prior to the addition of ADP.

Series [2] relates to canine PRP. The experiment in a line: ADP-induced platelet aggregation in canine PRP. In kind it is cell-based. Conditions: 20 μM ADP. The method, then: as §1, §2
Series [3] relates to rabbit PRP. The experiment in a line: ADP-induced platelet aggregation in rabbit PRP. In kind it is cell-based. Conditions: 20 μM ADP. The protocol: as §1, §2
The test system of series [4] is unactivated human platelets. As to the kind of experiment: Scatchard analysis of CN binding to unactivated human platelets.
The subject of series [5] is MDA-MB-435 tumor. As to the kind of experiment: Orthotopic MDA-MB-435 breast cancer metastatic model in nude mice. The format is in vivo. The protocol:
A spontaneous (orthotopic) metastatic model of nude mice has been established by implantation of MDA-MB-435 cells (5×10^5 in 0.1 ml) in the mammary fat pads (mfp). Palpable tumors appeared by the 10th day post-implantation. Daily injections of CN into the tumor masses of each of the groups arc carried out, started at the 14th day post-implantation. By the 8th week post-implantation, tumors were removed. The animals were allowed to survive for 2 more weeks without CN administration. The animals were then sacrificed and lung metastases were carefully examined. […] The volumes of tumor masses (mean±S.D.) of control (dark bars), low-dosage (0.5 μg/day, gray bars), and high-dosage (5 μ/day, light gray bars) CN-treated group are shown. The seven clusters of bars from left to right represent the data of pre-injection (PI, 14th day post-implantation) and the 1st through 6th week of injection. Student t-tests were employed to test the significance of differences. *and** indicate P<0.05 and p<0.01, respectively.

For series [6], the system named is T24-β3 neg. cells. The experiment in a line: Adhesion of T24-β3 neg. cells to immobilized vitronectin. In kind it is cell-based, human. The conditions noted are these: FIG. 19 C, D. The protocol:
Experiment 1. Cell adhesion assay: Human bladder carcinoma T24 cells were purchased from ATCC, and grown in RPMI1640 medium containing 5% fetal bovine serum. T24-β3 neg. cells were isolated by 6 rounds of negative FACS selection with anti-αvβ3 monoclonal antibody (mAb) LM609. FACS analysis was then performed as follows. The cells were resuspended in 1% BSA/PBS at a density of 1×10^7/ml. Aliquots of 100 μl were incubated with anti-αvβ3 mAb 7E3 or anti-αvβ5 mAb P1F6 (final concentration 5 μg/ml) at room temperature for 30 minutes. The cells were washed twice and resuspended in 1% BSA/PBS. Goat anti-mouse IgG conjugated with FITC was added to the suspension at a final titer of 1:200. After 30 minutes incubation at room temperature in darkness, unbound FITC-conjugated IgG was washed off, and the fluorescent intensity of the cells was analyzed using flow cytometry (FACScan, Becton Dickinson, Bedford, Mass.). Tests were performed in duplicate and the experiment was repeated three times. The results clearly indicate that T24 cells express both integrins αvβ3 (major) and αvβ5 (minor), but T24-β3 neg. cells only express αvβ5 (FIG. 18)
Individual wells of 96-well plates were coated at 4° C. overnight with 100 μl of vitronectin (1 μg/well). […] Cell adhesion was quantified either by CellTiter 96™ Aqueous Proliferation Assay kit (Promega, Madison, Wis.). […]

Series [7] has as its system OVCAR-5 cells. The experiment in a line: Invasion of OVCAR-5 cells through Matrigel, modified Boyden chamber. The conditions noted are these: 1000 nM. The format is cell-based, human. The protocol: Modified Boyden chambers were employed to measure invasion. Filters of 12 mm Boyden chamber with 12 μm pore size (Corning Costar, Cambridge, Mass.) were coated with 1:50 dilution of Matrigel in serum free medium. Cells (2.5×10^5 cells in 200 μl of medium) pre-treated with contortrostatin, antibodies against different integrins, or vehicle (control), were applied to the upper wells. HT1080 conditioned medium was added to the bottom well. The cells were incubated at 37° C. for 8 hr., at which point cells on the top side of the membrane were removed with a wet cotton swab. Cells which invaded through the filter membrane were fixed and stained with Diff-Quik™ staining kit (Dade Diagnostics of P. R. Inc., Aguada, Puerto Rico). The membranes were removed from the holder, and were mounted on slides. Migration was quantitated by determining the number of cells in five randomly selected high power vision field using a microscope. Each inhibitor concentration was tested in duplicate, and the experiments were repeated three times to confirm results.

In series [8] the test system is OVCAR-5 cells. The experiment in a line: Adhesion of OVCAR-5 cells to vitronectin coated plate. The format is cell-based, human. The text has this: FIG. 21. CN and other antagonists of αvβ5 inhibits adhesion of OVCAR-5 cells to vitronectin. Adhesion of cancer cells to the matrix is one of the critical steps of cancer spreading and metastasis. It is well established that integrin αvβ5 mediates adhesion of cells to vitronectin.

In series [9] the test system is human fibrosarcoma (HT-1080) cells. The conditions noted are these: cited from earlier work.

B1: contortrostatin (protein)
chain: DAPANPCCDAATCKLTTGSQCADGLCCDQCKFMKEGTVCRRARGDDLDDYCNGISAGCPRNPFHA
Consider B1, for which the “IC50 of ADP-induced human platelet aggregation” value in [1] (10 μM ADP, preincubated one minute) was determined as 0.73 µg/mL. Besides, the “platelet aggregation inhibitory activity after reduction of the disulfide bonds” value in [1] (even at concentrations ten times the IC50) was “completely eliminated platelet aggregation inhibitory activity”. The “IC50 of ADP-induced canine platelet aggregation” value in series [2] was found to be 1.8 µg/mL. The “IC50 of ADP-induced rabbit platelet aggregation” value in series [3] is 17.3 µg/mL. For the same molecule, in series [4], the “number of binding sites (Bm)” value was 100,000. Further, in series [5] (5 μg/day), the “# of nodules in lung (median)” value turned out to be 4.5 and the “Mean size of relapse tumor” value is on record as 48.7 ± 10.5 mm^3. Also, in [5] (5 μg/day, animals with/total), the In situ relapse is reported as 2/6. In addition, the “Metastasis incidence, Other Organs” value in series [5] (5 μg/day, chest wall, mediastinum, diaphragm, pleurae) is recorded as 2/6. The “growth of the tumor (tumor mass volume)” value in [5] (daily local injection into tumor) is given as “substantially inhibited the growth rate of the tumor; also recorded: significantly smaller”. In series [5] (high dose CN group versus control), this molecule showed an inhibition of metastasis above 90%. Moreover, in series [5] (high-dose CN (5 μg/day), P<0.05), the “mean weight of tumors” value is given as “significantly lower than control group”. For the same molecule, in series [5] (mouse, in vivo), the “bleeding at the injection sites” value is listed as “Some bleeding at the injection sites”, the spontaneous hemorrhage entry is listed as “no spontaneous hemorrhage” and the “toxicity in chronic experiment” value is on record as “not toxic”. Further, the “adhesion of T24-β3 neg. cells to vitronectin, in words” value in series [6] is listed as “completely inhibited adhesion; also recorded: inhibits adhesion of T24-β3 neg. completely”. Also, the “invasion of OVCAR-5 cells through Matrigel” value in series [7] is given as “almost completely inhibited invasion”. Also, the “adhesion of OVCAR-5 cells to vitronectin” value in [8] is recorded as “inhibited”. In addition, the “Inhibition of HT1080 cell binding to fibronectin” value in series [9] (CN at 1 μg/ml) is on record as 89%. For the same molecule, the “Inhibition of HT1080 cell binding to fibronectin” value in series [9] (CN at 5 μg/ml) is recorded as 85%.
